Results: the supplement of paper PMC7877785
± gives the uncertainty stated by the source.

Test: self-splicing fitness, log relative to wild type (ln ratio); higher = more splicing; Tetrahymena group I intron in knt gene, E. coli kanamycin selection, DiMSum; sequences stand for … in CUCUCU…GGAGGGAAAAGUUAUCAGGCAUGCACCUGGUAGCUAGUCUUUAAACCAAUAGAUUGCAUCGGUUUAAAAGGCAAGACCGUCAAAUUGCGGGAAAGGGGUCAACAGCCGUUCAGUACCAAGUCUCAGGGGAAACUUUGAGAUGGCCUUGCAAAGGGUAUGGUAAUAAGCUGACGGACAUGGUCCUAACCACGCAGCCAAGUCCUAAGUCAACAGAUCUUCUGUUGAUAUGGAUGCAGUUCACAGACUAAAUGUCGGUCGGGGAAGAUGUAUUCUUCUCAUAAGAUAUAGUCGGACCUCUCCUUAAUGGGAGCUAGCGGAUGAAGUGAUGCAACACUGGAGCCGCUGGGAACUAAUUUGUAUGCGAAAGUAUAUUGAUUAGUUUUGGAGUACUCGUGGUCG
In short: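 Library with all eight P1ex-region intron nucleotides randomised, intron inside the knt kanamycin-resistance gene on pET-22b(+), in E. coli BL21(DE3). Cells grew overnight at 37°C or 30°C on LB agar with or without 25 μg/mL kanamycin (plus 100 μg/mL carbenicillin, 50 μM IPTG, 0.2% rhamnose), in six replicate transformations. Pooled colonies were amplicon-sequenced on Illumina HiSeq 2500. DiMSum fitness is the error-weighted combination of wild-type-normalised replicate fold changes, kanamycin versus none.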

Sequence | self-splicing fitness (ln) (30 °C) | self-splicing fitness (ln) (37 °C)
GUGUAGCAAUAUUACGUUGU | -3.02 ± 0.28 | -2.17 ± 0.21
AAGAAGCAAUAUUACGUCUU | -2.83 ± 0.15 | -1.63 ± 0.14
UACGAGCAAUAUUACGACUG | -0.684 ± 0.24 | -1.35 ± 0.17
GCUAAGCAAUAUUACGCACA | -0.938 ± 0.098 | -0.709 ± 0.11
AGCAAGCAAUAUUACGAGGA | -2.86 ± 0.17 | -2.29 ± 0.2
AUAAAGCAAUAUUACGUACC | 0.0438 ± 0.19 | -0.16 ± 0.4
AAAGAGCAAUAUUACGUUUC | -3.41 ± 0.18 | -2.55 ± 0.24
GUACAGCAAUAUUACGGCAA | -1.59 ± 0.15 | -1.32 ± 0.12
AGGUAGCAAUAUUACGCAGA | -2.681 ± 0.023 | -1.59 ± 0.034
CUCAAGCAAUAUUACGGCUC | -3.53 ± 0.26 | -1.34 ± 0.21
ACGCAGCAAUAUUACGAUAU | -2.42 ± 0.096 | -1.02 ± 0.12
GCAGAGCAAUAUUACGUGUC | -4.24 ± 0.26 | -2.16 ± 0.21
UUGAAGCAAUAUUACGCCUC |  | -1.63 ± 0.42
CACAAGCAAUAUUACGCUCG | -0.562 ± 0.089 | -0.27 ± 0.092
GCGAAGCAAUAUUACGGUCU | -1.71 ± 0.085 | -0.493 ± 0.089
AACUAGCAAUAUUACGCUAU | -2.88 ± 0.14 | -1.84 ± 0.13
CAAUAGCAAUAUUACGGGUG | -0.693 ± 0.068 | 0.0252 ± 0.091
AAUAAGCAAUAUUACGUGAC | -2.18 ± 0.2 | -2.76 ± 0.35
AUCCAGCAAUAUUACGGUGG | -4.66 ± 0.33 | -2.49 ± 0.21
CUUAAGCAAUAUUACGUGUA | -3.17 ± 0.14 | -2.64 ± 0.17
UAUAAGCAAUAUUACGGCUA | -0.234 ± 0.092 | -0.126 ± 0.13
AUGCAGCAAUAUUACGGACC | -1.52 ± 0.17 | -0.744 ± 0.17
GAAUAGCAAUAUUACGGUAA | -2.25 ± 0.16 | -0.943 ± 0.13
CAUUAGCAAUAUUACGGUCG | -0.452 ± 0.14 | 0.576 ± 0.14

Sequence | self-splicing fitness (ln) (30 °C) | self-splicing fitness (ln) (37 °C)
GUCCAGCAAUAUUACGCGCU | -2.67 ± 0.25 | -2.51 ± 0.31
UGCCAGCAAUAUUACGUUGU | -3.21 ± 0.12 | -2.86 ± 0.18
CUGAAGCAAUAUUACGGUUA | -4.2 ± 0.35 | -2.52 ± 0.28
UGGGAGCAAUAUUACGUGAC |  | -2.53 ± 0.44
CCCCAGCAAUAUUACGGACG | -1.67 ± 0.096 | -0.944 ± 0.13
UUCUAGCAAUAUUACGAAUU | -2.96 ± 0.23 | -1.58 ± 0.18
GGACAGCAAUAUUACGUACG | -0.876 ± 0.12 | 0.399 ± 0.18
UGACAGCAAUAUUACGCCCG | -0.421 ± 0.12 | 0.601 ± 0.2
CUUCAGCAAUAUUACGCGGU | -2.21 ± 0.096 | -0.649 ± 0.095
CUCCAGCAAUAUUACGGGCU | -3.21 ± 0.13 | -2.49 ± 0.18
GCAAAGCAAUAUUACGUCGC | -1.48 ± 0.16 | -2.45 ± 0.27
GUAAAGCAAUAUUACGGGGG | -3.31 ± 0.18 | -2.87 ± 0.31
AGUUAGCAAUAUUACGGUGA | -1.43 ± 0.13 | -1.13 ± 0.21
CCUUAGCAAUAUUACGCAGA | -3.11 ± 0.36 | -2.72 ± 0.3
GGGGAGCAAUAUUACGGAAU |  | -1.68 ± 0.33
ACCGAGCAAUAUUACGCCUU | -2.75 ± 0.24 | -1.32 ± 0.19
CUCUAGCAAUAUUACGUAUG | -3.02 ± 0.21 | -1.61 ± 0.15
CGCUAGCAAUAUUACGUCUG | -0.182 ± 0.078 | 0.774 ± 0.089
UGUCAGCAAUAUUACGCAUC | -2.61 ± 0.12 | -1.57 ± 0.11
UUGAAGCAAUAUUACGCUGU | -1.96 ± 0.14 | -1.84 ± 0.16
UGUCAGCAAUAUUACGAACG | -0.137 ± 0.086 | 0.589 ± 0.11
GGAAAGCAAUAUUACGUGAC | -2.97 ± 0.19 | -1.94 ± 0.24
GGAUAGCAAUAUUACGCCAA | -2.37 ± 0.41 | -1.01 ± 0.25
UAUGAGCAAUAUUACGGUAA | -3.33 ± 0.35 | -2.78 ± 0.35
